How the values were obtained:
Settings in all cases: both partners purified
PD-L2-Fc (Generon) = molecular target: T1, PD-L2-Fc (Generon) (Homo sapiens (assumed), UniProt Q9BQ51); assay: BLI; PD-L2-Fc (2 ug/ml) on Protein G biosensors; VHHs at 10 uM; 25 C
T1 construct: PD-L2 (programmed cell death 1 ligand 2), extracellular region; No catalogue number printed; also called extracellular region of PD-L2 with a Fc tag; source: bought: Generon

[1] = molecular target: T2, PD-L1 D1D2 (residues 18-237) (human, UniProt Q9NZQ7); assay: BLI; biotinylated avitagged PD-1 (5 ug/ml) on streptavidin biosensors; 3 uM PD-L1 D1D2 alone or with 20 uM VHH; 25 C
T2 construct: PD-L1 (programmed death-ligand 1, B7-H1, CD274), human, extracellular region D1D2, residues 18-237; also called extracellular region of PD-L1
T2 sequence (Q9NZQ7 18-237): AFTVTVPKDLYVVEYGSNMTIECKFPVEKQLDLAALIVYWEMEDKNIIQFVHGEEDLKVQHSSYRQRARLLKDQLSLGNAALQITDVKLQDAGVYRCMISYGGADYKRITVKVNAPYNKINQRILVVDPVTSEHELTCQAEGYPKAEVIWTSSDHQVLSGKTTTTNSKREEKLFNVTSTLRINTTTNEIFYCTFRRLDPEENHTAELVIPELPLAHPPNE

PD-L1-Fc fusion protein [2] = molecular target: T3, PD-L1-Fc fusion protein (Homo sapiens, UniProt Q9NZQ7); assay: BLI; PD-L1-Fc (5 ug/ml) loaded on Protein G biosensors, VHH in solution (10 uM to 0.3 nM); Octet QKe, 25 °C, PBS pH 7.4, 0.01% Tween-20, 0.1% BSA; kinetic analysis, global model 'association kinetics' in Prism 9
T3 construct: PD-L1 (programmed cell death 1 ligand 1, B7-H1, CD274) part of a bought PD-L1-Fc fusion protein; Probably the extracellular region; Held on Protein G biosensors by the Fc; also called programmed death-ligand 1; B7-H1; source: bought: Invitrogen
T3 sequence (Q9NZQ7 19-238): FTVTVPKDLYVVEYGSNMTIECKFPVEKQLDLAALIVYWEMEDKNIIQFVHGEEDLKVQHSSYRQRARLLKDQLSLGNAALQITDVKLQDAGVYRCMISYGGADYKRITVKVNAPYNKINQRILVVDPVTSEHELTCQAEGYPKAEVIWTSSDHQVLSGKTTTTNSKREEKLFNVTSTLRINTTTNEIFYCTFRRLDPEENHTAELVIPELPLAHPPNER

PD-L1-Fc fusion protein [3] = molecular target: T3, PD-L1-Fc fusion protein; assay: BLI; PD-L1-Fc (5 ug/ml) loaded on Protein G biosensors, VHH in solution (10 uM to 0.3 nM); Octet QKe, 25 °C, PBS pH 7.4, 0.01% Tween-20, 0.1% BSA; steady-state analysis of the maximum responses, one-site specific-binding model in Prism 9
[4] = molecular target: T4, PD-L1 D1 (residues 18-134) (human, UniProt Q9NZQ7 18-134); assay: NMR titration; chemical shift perturbation (minimal shift) mapping: labelled PD-L1 D1 free and with a 60% molar excess of CD80; 15N/1H TROSY; 25 C; 25 mM KH2PO4 pH 7.4, 25 mM NaCl, 10 uM EDTA
T4 construct: PD-L1 (programmed death-ligand 1, B7-H1, CD274), human, IgV-like domain D1, residues 18-134; Uniformly 15N/13C labelled for NMR; the sentence on constructs can be read as giving a C-terminal avitag to this construct too; also called PD-L D1
T4 sequence (Q9NZQ7 18-134): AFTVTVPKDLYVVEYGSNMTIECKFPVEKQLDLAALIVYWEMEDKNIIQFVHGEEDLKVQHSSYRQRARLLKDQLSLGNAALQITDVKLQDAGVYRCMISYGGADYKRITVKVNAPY

T1 sequence (Q9BQ51 20-220): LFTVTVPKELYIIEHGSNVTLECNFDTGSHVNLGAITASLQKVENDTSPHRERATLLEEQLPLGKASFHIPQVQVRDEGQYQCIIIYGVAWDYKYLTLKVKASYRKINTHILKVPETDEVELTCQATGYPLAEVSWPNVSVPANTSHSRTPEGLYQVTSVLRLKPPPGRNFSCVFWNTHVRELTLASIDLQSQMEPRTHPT

B1: VHH14 (VHH)
VHH: EVQLVESGGGLVQAGDSLRLSCTASARTFIKYAMGWFRQAPGKEREFVAAISWSGSRTTYADSVKGRFTISRDNDKNTVYLQMNTLEPEDTAIYYCAKAKGGYHSSQYDYDYWGQGTQVTVSS
notes: TEV-cleavable tag
- binding result (PD-L2-Fc (Generon)): no binding (tested: 10 μM)
- percent inhibition of PD-L1 D1D2 binding to PD-1 at 20 uM VHH [1]: > 90%

B2: VHH2 (VHH)
VHH: QVQLVESGGGSVQPGGSLRLSCAASGSIVGHAVQAWYRQAPGKQRDLVAQLFDNGKTNIADSVKGRFTISGDNAKNTFYLQMNNLKPEDTAIYYCAILILPSMGVPPNIYEGQGTQVTVSS
notes: TEV-cleavable tag; source: E. coli BL21(DE3), purified (Ni-NTA, gel filtration)
- binding result (PD-L2-Fc (Generon)): no binding (tested: 10 μM)
- percent inhibition of PD-L1 D1D2 binding to PD-1 at 20 uM VHH [1]: > 90%

B3: VHH4 (VHH)
VHH: EVQLVESGGGLVQAGDSLRLSCTASGRNFIIYTLAWFRQAPGKEREFVAGISWSGGSTKYADPVKGRFTISRDNAKNTVYLQMNSLHSDDTGVYYCGAQRGATIDLKYGMESWGKGTQVTVSS
notes: TEV-cleavable tag
- binding result (PD-L2-Fc (Generon)): no binding (tested: 10 μM)
- percent inhibition of PD-L1 D1D2 binding to PD-1 at 20 uM VHH [1]: > 90%

B4: VHH4 (VHH)
VHH: B3 VHH
notes: The His6 tag is TEV-cleavable; also called anti-PD-L1 VHH 4
- Kd (PD-L1-Fc fusion protein [2]): 48 nM
- koff (PD-L1-Fc fusion protein [2]): 0.029 s⁻¹
- kon (PD-L1-Fc fusion protein [2]): 590000 M⁻¹ s⁻¹
- Kd (PD-L1-Fc fusion protein [3]): 59 nM

B5: VHH9 (VHH)
VHH: QVQLVESGGKLVQAGGSLRLSCAASGRSIVPYAMGWFRQAPGKEREFVAVIDWSGFRTYYADSVKGRFTISRDNAKNTVYLEMSSLKPEDTAVYYCAQAGYGLGYRIHANEYHYWGQGTQVTVSS
notes: TEV-cleavable tag; source: E. coli BL21(DE3), soluble, purified (Ni-NTA, gel filtration)
- binding result (PD-L2-Fc (Generon)): no binding (tested: 10 μM)
- percent inhibition of PD-L1 D1D2 binding to PD-1 at 20 uM VHH [1]: > 90%

B6: VHH9 (VHH)
VHH: B5 VHH
notes: The His6 tag is TEV-cleavable; also called anti-PD-L1 VHH 9; source: E. coli BL21(DE3), soluble expression, purified (Ni-NTA, gel filtration)
- Kd (PD-L1-Fc fusion protein [3]): 0.7 nM

B7: VHH15 (VHH)
VHH: EVQLVESGGGLVQAGGSLRLSCAASGRTSSIYVMAWFRQAPGKERELVAAISTSGNTVYPNSVKGRFTISRDNAKSTVYLQMNSLKPEDTAVYFCNADRTTYSSGRYSSQDYWGQGTQVTVSS
notes: TEV-cleavable tag
- binding result (PD-L2-Fc (Generon)): no binding (tested: 10 μM)
- percent inhibition of PD-L1 D1D2 binding to PD-1 at 20 uM VHH [1]: > 90%

B8: VHH15 (VHH)
VHH: B7 VHH
notes: The His6 tag is TEV-cleavable; also called anti-PD-L1 VHH 15
- Kd (PD-L1-Fc fusion protein [3]): 9.2 nM

B9: VHH13 (VHH)
VHH: EVQLVESGGGLVQPGGSLRLSCAASGSTFSINAMGWYRQAPGKQRELVAAISSGGSTNYADSVKGRFTISRDNAKNTVYLQMNSLKPEDTAVYYCNTINIGTFISLGGSPLGSWGQGTQVTVSS
notes: TEV-cleavable tag
- binding result (PD-L2-Fc (Generon)): no binding (tested: 10 μM)
- percent inhibition of PD-L1 D1D2 binding to PD-1 at 20 uM VHH [1]: > 90%

B10: VHH16 (VHH)
VHH: QVQLVESGGGWVQTGGSLRLSCAASGSTFDIKRMAWYRQAPGKEREFVADIWSEGSTHYADSVKGRFTISRDSAKNTMYLQMNSLKPEDTAAYYCNVGNTWGQGTQVTVSS
notes: TEV-cleavable tag; CDR 1 and 2 identical to VHH18, CDR 3 distinct
- binding result (PD-L2-Fc (Generon)): no binding (tested: 10 μM)
- percent inhibition of PD-L1 D1D2 binding to PD-1 at 20 uM VHH [1]: > 90%

B11: VHH18 (VHH)
VHH: EVQLVESGGGWVQTGGSLRLSCAASGSTFDIKRMAWYRQAPGKEREFVADIWSEGSTHYADSVKGRFTISRDSAKNTMYLYMNSLKPEDTAVYYCNVEYVLRTYWGQGTQVTVSS
notes: TEV-cleavable tag; CDR 1 and 2 identical to VHH16, CDR 3 distinct
- binding result (PD-L2-Fc (Generon)): no binding (tested: 10 μM)
- percent inhibition of PD-L1 D1D2 binding to PD-1 at 20 uM VHH [1]: > 90%

B12: VHH20 (VHH)
VHH: EVQLVESGGGSVQAGGSLRLSCVASGIAFSESPMAWYRQAPGRQREFVADVSADNKPYYRDTLKGRFTISRDNDKNSVYLQMNFLQPEDTAVYYCNALLLEAGTIKNYWGQGTQVTVSS
notes: TEV-cleavable tag
- binding result (PD-L2-Fc (Generon)): no binding (tested: 10 μM)
- percent inhibition of PD-L1 D1D2 binding to PD-1 at 20 uM VHH [1]: > 90%

B13: VHH21 (VHH)
VHH: EVQLVESGGGLVQTGGSLRLSCAASGRTFDSYFMGWFRQAPGKEREFVAAISGSGSLTSYEDGVKGRFTISRDNAKNTVSLQMTNLKPEDTAVYYCASCLSCAFINGRQVDSRYYNYWGQGTQVTVSS
notes: TEV-cleavable tag; Two cysteines within CDR 3 form an additional disulfide bond (confirmed by mass spectrometry)
- binding result (PD-L2-Fc (Generon)): no binding (tested: 10 μM)
- percent inhibition of PD-L1 D1D2 binding to PD-1 at 20 uM VHH [1]: > 90%

B14: VHH10 (VHH)
VHH: EVQLVESGGGLVQAGDSLRLSCAASGRAFSGYAMAWFRQAPEKEREFVAAITWRGGTPYYAVRAKGRFTISRDSAKNTAYLEVNSLKPEDTATYYCAAPSLQVATMDVKDYAYWGQGTLVTVSS
notes: TEV-cleavable tag
- binding result (PD-L2-Fc (Generon)): no binding (tested: 10 μM)
- percent inhibition of PD-L1 D1D2 binding to PD-1 at 20 uM VHH [1]: > 90%

B15: VHH17 (VHH)
VHH: EVQLVESGGGLVQAGGSLRLSCAASGRTFSAYAMGWFRQAPGKERELVAGISWSGGMTYYADSVKGRFTISRDNAKNMVYLQMNSLKAEDTAVYYCAGGFSAVVPDHPDEYHYWGQGTQVTVSS
notes: TEV-cleavable tag
- binding result (PD-L2-Fc (Generon)): no binding (tested: 10 μM)
- percent inhibition of PD-L1 D1D2 binding to PD-1 at 20 uM VHH [1]: > 90%

B16: VHH22 (VHH)
VHH: EVQLVESGGGLVQAGGSLKLSCAASGRTFSGNTMGWFRQAPGKERELVTVVSSGGSTYYSDSVKGRFTISRDNALNTVYLQMNSLKPEDTAVYYCAAASLISGLTTTRRLFDYWGQGTQVTVSS
notes: TEV-cleavable tag
- binding result (PD-L2-Fc (Generon)): no binding (tested: 10 μM)
- percent inhibition of PD-L1 D1D2 binding to PD-1 at 20 uM VHH [1]: > 90%

B17: VHH19 (VHH)
VHH: EVQLVESGGGSVQAGASLRLSCAASGFPFSHYAIGWFRQAPGKEREFVTSIDRSGINTYYADSVKGRFTISRDNAKNAVSLQMNSLKPDDTAVYYCAAGPRLVTSPELYPYWGQGTQVTVSS
notes: TEV-cleavable tag
- binding result (PD-L2-Fc (Generon)): no binding (tested: 10 μM)
- percent inhibition of PD-L1 D1D2 binding to PD-1 at 20 uM VHH [1]: > 90%

B18: extracellular region of CD80 (residues 35-235) (domain or fragment, human, UniProt P33681 35-235, looked up)
chain: VIHVTKEVKEVATLSCGHNVSVEELAQTRIYWQKEKKMVLTMMSGDMNIWPEYKNRTIFDITNNLSIVILALRPSDEGTYECVVLKYEKDAFKREHLAEVTLSVKADFPTPSISDFEIPTSNIRRIICSTSGGFPEPHLSWLENGEELNAINTTVSQDPETELYAVSSKLDFNMTTNHSFMCLIKYGHLRVNQTFNWNTTK
notes: CD80 (Cluster of differentiation 80, B7-1), human; construct 1-235 with the native signal peptide; final purified protein holds residues 35 to 235 after signal peptide cleavage; Glycosylated form; also called B7-1; source: expiCHO cells with kifunensine, secreted, purified (Ni-NTA, gel filtration)
- binding result [4]: binds
